Data published in paper PMC8983844.

Target: protein A (UniProt P38507)
Experiment: spectral-domain phase-sensitive interferometry (SD-PSI), label-free; protein A (0.5 mg/ml) adsorbed on a dopamine layer on a glass chip (0.17 or 0.20 mm) and blocked with protein-free blocking solution; IgG solution (20 ug/ml mouse IgG; gradient of 10, 20, 30, 50 ug/ml IgG) passed through the flow chamber; PBS washes; reference path without protein A

## mouse IgG (antibody)
  phase change at 20 ug/ml IgG: 0.04 rad
  thickness variation at 10 ug/ml IgG: 1.86 nm
  thickness variation at 20 ug/ml IgG: 3.76 nm
  thickness variation at 30 ug/ml IgG: 5.45 nm
  thickness variation at 50 ug/ml IgG: 10.1 nm
